Starred links: 1 amine or outer side, 2 acyl side, 3 side chain; linkers in the order of their positions; H or OH if unused. Positions of bridges follow the written chain, without caps; N, C: chain ends. Non-standard residues stand in square brackets, D forms with d. *: point of attachment. Tyr(Me) = 4-OMe-Phe, COc1ccc(C[C@H](N[*:1])C(=O)[*:2])cc1; dPhe(4-CONH2) = NC(=O)c1ccc(C[C@@H](N)C(=O)O)cc1; dTyr(Me) = COc1ccc(C[C@@H](N[*:1])C(=O)[*:2])cc1; Phe(4-Cl) = N[C@@H](Cc1ccc(Cl)cc1)C(=O)O; dPhe(4-Cl) = N[C@H](Cc1ccc(Cl)cc1)C(=O)O; Bz = O=C(c1ccccc1)*; βAla = NCCC(=O)O
B1: Compound 9: H-Cpa-cyclo[DCys-Tyr-D-4-(Gly-Ac)Aph-Lys-Thr-Cys]-DTyr-NH2 (peptide)
peptide: XXYXKTCX
HELM: PEPTIDE1{[N[C@@H](Cc1ccc(Cl)cc1)C(=O)[*:2]].[dC].Y.[O=C([C@@H](Cc1ccc(N[*:3])cc1)N[*:1])[*:2]].K.T.C.[dY].[am]}|PEPTIDE2{[ac].G}$PEPTIDE1,PEPTIDE2,4:R3-2:R2|PEPTIDE1,PEPTIDE1,2:R3-7:R3$$$V2.0
SMILES: CC(=O)NCC(=O)Nc1ccc(C[C@H]2NC(=O)[C@H](Cc3ccc(O)cc3)NC(=O)[C@H](NC(=O)[C@@H](N)Cc3ccc(Cl)cc3)CSSC[C@@H](C(=O)N[C@H](Cc3ccc(O)cc3)C(N)=O)NC(=O)[C@H]([C@@H](C)O)NC(=O)[C@H](CCCCN)NC2=O)cc1
B2: Compound 5: H-Cpa-cyclo[DCys-Tyr-D-(4-aminomethyl)Phe-Lys-Thr-Cys]-DTyr-NH2 (peptide)
peptide: H-[Phe(4-Cl)][dC]Y[dPhe(4-aminomethyl)]KTC[dY]-NH2
modifications: disulfide 2-7
B3: Compound 6: H-Cpa-cyclo[DCys-Tyr-D-(4-acetamidomethyl)Phe-Lys-Thr-Cys]-DTyr-NH2 (peptide)
peptide: H-[Phe(4-Cl)][dC]Y[dPhe(4-acetamidomethyl)]KTC[dY]-NH2
modifications: disulfide 2-7
B4: Compound 10: H-Cpa-cyclo[DCys-Tyr-D-4-(Pro)Aph-Lys-Thr-Cys]-DTyr-NH2 (peptide)
peptide: H-[Phe(4-Cl)][dC]Y[dAph(Pro)]KTC[dY]-NH2
modifications: disulfide 2-7
B5: Compound 11: H-Cpa-cyclo[DCys-Tyr-D-4-(2-(4-morpholinyl)ethyl)Aph-Lys-Thr-Cys]-DTyr-NH2 (peptide)
peptide: H-[Phe(4-Cl)][dC]Y[dAph(2-(4-morpholinyl)ethyl)]KTC[dY]-NH2
modifications: disulfide 2-7
B6: Compound 8: H-Cpa-cyclo[DCys-Tyr-D-4-(Gly)Aph-Lys-Thr-Cys]-DTyr-NH2 (peptide)
peptide: XXYXKTCX
HELM: PEPTIDE1{[N[C@@H](Cc1ccc(Cl)cc1)C(=O)[*:2]].[dC].Y.[O=C([C@@H](Cc1ccc(N[*:3])cc1)N[*:1])[*:2]].K.T.C.[dY].[am]}|PEPTIDE2{G}$PEPTIDE1,PEPTIDE2,4:R3-1:R2|PEPTIDE1,PEPTIDE1,2:R3-7:R3$$$V2.0
SMILES: C[C@@H](O)[C@@H]1NC(=O)[C@H](CCCCN)NC(=O)[C@@H](Cc2ccc(NC(=O)CN)cc2)NC(=O)[C@H](Cc2ccc(O)cc2)NC(=O)[C@H](NC(=O)[C@@H](N)Cc2ccc(Cl)cc2)CSSC[C@@H](C(=O)N[C@H](Cc2ccc(O)cc2)C(N)=O)NC1=O
B7: Compound 47: H-Cpa-cyclo[D-Cys-Cpa-D-Phe(4-carbamoyl)-Lys(Nε-Me)-Thr-Cys]-D-Cpa-NH2 (peptide)
peptide: H-[Phe(4-Cl)][dC][Phe(4-Cl)][dPhe(4-CONH2)]K(Me)TC[dPhe(4-Cl)]-NH2
modifications: disulfide 2-7
SMILES: CNCCCC[C@@H]1NC(=O)[C@@H](Cc2ccc(C(N)=O)cc2)NC(=O)[C@H](Cc2ccc(Cl)cc2)NC(=O)[C@H](NC(=O)[C@@H](N)Cc2ccc(Cl)cc2)CSSC[C@@H](C(=O)N[C@H](Cc2ccc(Cl)cc2)C(N)=O)NC(=O)[C@H]([C@@H](C)O)NC1=O
B8: Compound 53: 2-Pyridyl(CO)-Cpa-cyclo[D-Cys-Tyr-D-Phe(4-carbamoyl)-Lys(Nε-Me)-Thr-Cys]-D-Tyr-NH2 (peptide)
peptide: picolinoyl-[Phe(4-Cl)][dC]Y[dPhe(4-CONH2)]K(Me)TC[dY]-NH2
modifications: disulfide 2-7
B9: Compound 46: H-Cpa-cyclo[D-Cys-Tyr-D-Phe(4-carbamoyl)-Lys(Nε-Me)-Thr-Cys]-D-Cpa-NH2 (peptide)
peptide: H-[Phe(4-Cl)][dC]Y[dPhe(4-CONH2)]K(Me)TC[dPhe(4-Cl)]-NH2
modifications: disulfide 2-7
SMILES: CNCCCC[C@@H]1NC(=O)[C@@H](Cc2ccc(C(N)=O)cc2)NC(=O)[C@H](Cc2ccc(O)cc2)NC(=O)[C@H](NC(=O)[C@@H](N)Cc2ccc(Cl)cc2)CSSC[C@@H](C(=O)N[C@H](Cc2ccc(Cl)cc2)C(N)=O)NC(=O)[C@H]([C@@H](C)O)NC1=O
B10: Compound 44: H-Cpa-cyclo[DCys-Tyr-D-(4-carbamoyl)Phe-Lys-Thr-Cys]-4-OMe-D-Phe-NH2 (peptide)
peptide: H-[Phe(4-Cl)][dC]Y[dPhe(4-CONH2)]KTC[dTyr(Me)]-NH2
modifications: disulfide 2-7
SMILES: COc1ccc(C[C@@H](NC(=O)[C@@H]2CSSC[C@@H](NC(=O)[C@@H](N)Cc3ccc(Cl)cc3)C(=O)N[C@@H](Cc3ccc(O)cc3)C(=O)N[C@H](Cc3ccc(C(N)=O)cc3)C(=O)N[C@@H](CCCCN)C(=O)N[C@@H]([C@@H](C)O)C(=O)N2)C(N)=O)cc1
B11: Compound 48: H-Cpa-cyclo[D-Cys-Cpa-D-Phe(4-carbamoyl)-Lys(Nε-Me)-Thr-Cys]-D-Tyr-NH2 (peptide)
peptide: H-[Phe(4-Cl)][dC][Phe(4-Cl)][dPhe(4-CONH2)]K(Me)TC[dY]-NH2
modifications: disulfide 2-7
SMILES: CNCCCC[C@@H]1NC(=O)[C@@H](Cc2ccc(C(N)=O)cc2)NC(=O)[C@H](Cc2ccc(Cl)cc2)NC(=O)[C@H](NC(=O)[C@@H](N)Cc2ccc(Cl)cc2)CSSC[C@@H](C(=O)N[C@H](Cc2ccc(O)cc2)C(N)=O)NC(=O)[C@H]([C@@H](C)O)NC1=O
B12: Compound 49: H-βAla-Cpa-cyclo[DCys-Tyr-DPhe(4-CONH2)-Lys(Me)-Thr-Cys]-DTyr-NH2 (peptide)
peptide: H-[βAla][Phe(4-Cl)][dC]Y[dPhe(4-CONH2)]K(Me)TC[dY]-NH2
modifications: disulfide 3-8
SMILES: CNCCCC[C@@H]1NC(=O)[C@@H](Cc2ccc(C(N)=O)cc2)NC(=O)[C@H](Cc2ccc(O)cc2)NC(=O)[C@H](NC(=O)[C@H](Cc2ccc(Cl)cc2)NC(=O)CCN)CSSC[C@@H](C(=O)N[C@H](Cc2ccc(O)cc2)C(N)=O)NC(=O)[C@H]([C@@H](C)O)NC1=O
B13: Compound 54: H2N(CO)(CH2)2(CO)-Cpa-cyclo[D-Cys-Tyr-D-Phe(4-carbamoyl)-Lys(Nε-Me)-Thr-Cys]-D-Tyr-NH2 (peptide)
peptide: succinamoyl-[Phe(4-Cl)][dC]Y[dPhe(4-CONH2)]K(Me)TC[dY]-NH2
modifications: disulfide 2-7
B14: Compound 45: H-Cpa-cyclo[DCys-4-OMe-Phe-D-(4-carbamoyl)Phe-Lys-Thr-Cys]-4-OMe-D-Phe-NH2 (peptide)
peptide: H-[Phe(4-Cl)][dC][Tyr(Me)][dPhe(4-CONH2)]KTC[dTyr(Me)]-NH2
modifications: disulfide 2-7
SMILES: COc1ccc(C[C@@H]2NC(=O)[C@H](NC(=O)[C@@H](N)Cc3ccc(Cl)cc3)CSSC[C@@H](C(=O)N[C@H](Cc3ccc(OC)cc3)C(N)=O)NC(=O)[C@H]([C@@H](C)O)NC(=O)[C@H](CCCCN)NC(=O)[C@@H](Cc3ccc(C(N)=O)cc3)NC2=O)cc1
B15: Compound 50: Ph(CO)NHCH2(CO)-Cpa-cyclo[D-Cys-Tyr-D-Phe(4-carbamoyl)-Lys(Nε-Me)-Thr-Cys]-D-Tyr-NH2 (peptide)
peptide: Bz-G[Phe(4-Cl)][dC]Y[dPhe(4-CONH2)]K(Me)TC[dY]-NH2
modifications: disulfide 3-8
SMILES: CNCCCC[C@@H]1NC(=O)[C@@H](Cc2ccc(C(N)=O)cc2)NC(=O)[C@H](Cc2ccc(O)cc2)NC(=O)[C@H](NC(=O)[C@H](Cc2ccc(Cl)cc2)NC(=O)CNC(=O)c2ccccc2)CSSC[C@@H](C(=O)N[C@H](Cc2ccc(O)cc2)C(N)=O)NC(=O)[C@H]([C@@H](C)O)NC1=O
B16: Compound 51: PhSO2CH2(CO)-Cpa-cyclo[D-Cys-Tyr-D-Phe(4-carbamoyl)-Lys(Nε-Me)-Thr-Cys]-D-Tyr-NH2 (peptide)
peptide: {2‑(phenylsulfonyl)acetyl}-[Phe(4-Cl)][dC]Y[dPhe(4-CONH2)]K(Me)TC[dY]-NH2
modifications: disulfide 2-7
B17: Compound 52: t-BuCH2(CO)-Cpa-cyclo[D-Cys-Tyr-D-Phe(4-carbamoyl)-Lys(Nε-Me)-Thr-Cys]-D-Tyr-NH2 (peptide)
peptide: {3,3‑dimethylbutanoyl}-[Phe(4-Cl)][dC]Y[dPhe(4-CONH2)]K(Me)TC[dY]-NH2
modifications: disulfide 2-7

Target: somatostatin receptor SSTR3 (UniProt P32745 1-418)
Sequence (P32745 whole entry): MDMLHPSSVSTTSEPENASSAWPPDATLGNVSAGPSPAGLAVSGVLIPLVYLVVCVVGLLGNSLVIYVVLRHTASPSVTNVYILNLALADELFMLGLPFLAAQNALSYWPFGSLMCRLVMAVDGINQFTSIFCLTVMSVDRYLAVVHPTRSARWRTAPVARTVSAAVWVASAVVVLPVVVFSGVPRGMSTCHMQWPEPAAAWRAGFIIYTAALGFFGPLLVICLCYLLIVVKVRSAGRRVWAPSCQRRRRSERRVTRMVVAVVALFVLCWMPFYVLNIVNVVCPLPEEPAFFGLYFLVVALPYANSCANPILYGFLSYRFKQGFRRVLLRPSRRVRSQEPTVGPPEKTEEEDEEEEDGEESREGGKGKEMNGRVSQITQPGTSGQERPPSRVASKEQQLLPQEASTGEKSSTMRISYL
Experiment: cell-based or functional assay

| Binder | IC50 (PathHunter β-Arrestin, antagonist mode) [nM] |
| --- | --- |
| B1 | > 1000 |
| B2 | > 1000 |
| B3 | > 1000 |
| B4 | > 1000 |
| B5 | > 1000 |
| B6 | > 1000 |

Target: somatostatin receptor type 2 (SSTR2) (UniProt P30874 1-369)
Sequence (P30874 whole entry): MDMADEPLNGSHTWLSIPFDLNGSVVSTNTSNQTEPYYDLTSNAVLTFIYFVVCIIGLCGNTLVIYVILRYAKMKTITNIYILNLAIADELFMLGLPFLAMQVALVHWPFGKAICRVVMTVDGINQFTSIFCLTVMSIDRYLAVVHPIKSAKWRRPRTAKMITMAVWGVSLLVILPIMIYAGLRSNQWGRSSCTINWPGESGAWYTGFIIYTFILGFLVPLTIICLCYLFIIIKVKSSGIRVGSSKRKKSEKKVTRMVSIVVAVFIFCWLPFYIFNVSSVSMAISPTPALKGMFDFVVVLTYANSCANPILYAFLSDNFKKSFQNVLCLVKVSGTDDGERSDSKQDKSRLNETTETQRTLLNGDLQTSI
Experiment: cell-based or functional assay

| Binder | IC50 (PathHunter β-Arrestin, antagonist mode) [nM] |
| --- | --- |
| B7 | 1.51 |
| B8 | 4.28 |
| B1 | 104 |
| B2 | 213 |
| B9 | 0.398 |
| B3 | 166 |
| B10 | 10.7 |
| B11 | 1.31 |
| B4 | > 1000 |
| B12 | 2.86 |
| B13 | 2.33 |
| B14 | 14.6 |
| B15 | 1.11 |
| B16 | 1.45 |
| B5 | 243 |
| B6 | 84 |
| B17 | 1.73 |

Reference: patent US20190040102A1 (CDRD VENTURES, published 2019)
